According to the supplement of paper PMC9112550, “Optimization of the antimicrobial peptide Bac7 by deep mutational scanning” (BMC Biology, 2022):

system: Escherichia coli TOP10; test: shrunken log2 fold change of peptide-encoding DNA abundance (4.5 h post-induction vs induction); higher = less antimicrobial activity (less host growth inhibition); details: time post-induction: 4.5 h; library: site-saturation at positions 5, 18, 19, 20
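Further: peptides expressed intracellularly from a pBAD plasmid library in pooled LB shake-flask culture, induced with 0.3% L-arabinose, DNA abundance read by NGS, three biological replicates, DESeq2 with apeglm shrinkage.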

Sequence | shrunken log2 fold change
RRIRQRPPRLPRPRPRPCEKPRP | -0.00192
RRIRQRPPRLPRPRPRPCENPRP | 0.0237
RRIRQRPPRLPRPRPRPCFYPRP | -0.269
RRIRQRPPRLPRPRPRPCIVPRP | -0.747
RRIRQRPPRLPRPRPRPCKGPRP | 0.00408
RRIRQRPPRLPRPRPRPCMHPRP | -0.0431
RRIRQRPPRLPRPRPRPCNSPRP | -0.0261
RRIRQRPPRLPRPRPRPCPRPRP | -0.01
RRIRQRPPRLPRPRPRPCQCPRP | -0.034
RRIRQRPPRLPRPRPRPCQIPRP | -0.298
RRIRQRPPRLPRPRPRPCRGPRP | 0.104
RRIRQRPPRLPRPRPRPCRNPRP | -0.0117
RRIRQRPPRLPRPRPRPCRWPRP | -0.0062
RRIRQRPPRLPRPRPRPCSAPRP | -0.257
RRIRQRPPRLPRPRPRPCSRPRP | 0.0758
RRIRQRPPRLPRPRPRPCVIPRP | -0.409
RRIRQRPPRLPRPRPRPCVPPRP | -0.0509
RRIRQRPPRLPRPRPRPCVWPRP | 0.213
RRIRQRPPRLPRPRPRPCYRPRP | -0.00251
RRIRQRPPRLPRPRPRPDAYPRP | -0.228
RRIRQRPPRLPRPRPRPDDLPRP | 0.0248
RRIRQRPPRLPRPRPRPDDRPRP | -0.000777
RRIRQRPPRLPRPRPRPDECPRP | 0.0568
RRIRQRPPRLPRPRPRPDEGPRP | -0.106
RRIRQRPPRLPRPRPRPDGHPRP | -0.0936

Sequence | shrunken log2 fold change
RRIRQRPPRLPRPRPRPDGKPRP | 0.0269
RRIRQRPPRLPRPRPRPDGLPRP | -0.0465
RRIRQRPPRLPRPRPRPDHKPRP | -0.0609
RRIRQRPPRLPRPRPRPDIGPRP | -0.0932
RRIRQRPPRLPRPRPRPDKCPRP | 0.272
RRIRQRPPRLPRPRPRPDKDPRP | -0.0597
RRIRQRPPRLPRPRPRPDMKPRP | 0.26
RRIRQRPPRLPRPRPRPDMVPRP | -0.0075
RRIRQRPPRLPRPRPRPDNQPRP | -0.037
RRIRQRPPRLPRPRPRPDPCPRP | -0.243
RRIRQRPPRLPRPRPRPDPWPRP | 0.161
RRIRQRPPRLPRPRPRPDQLPRP | -0.263
RRIRQRPPRLPRPRPRPDQRPRP | -0.00141
RRIRQRPPRLPRPRPRPDQVPRP | -0.00133
RRIRQRPPRLPRPRPRPDSEPRP | 0.138
RRIRQRPPRLPRPRPRPDTLPRP | 0.016
RRIRQRPPRLPRPRPRPDWCPRP | -0.229
RRIRQRPPRLPRPRPRPDWMPRP | 0.0723
RRIRQRPPRLPRPRPRPDWSPRP | -0.0861
RRIRQRPPRLPRPRPRPDYIPRP | -0.0798
RRIRQRPPRLPRPRPRPDYRPRP | -0.00448
RRIRQRPPRLPRPRPRPEAEPRP | 0.302
RRIRQRPPRLPRPRPRPEAFPRP | 0.127
RRIRQRPPRLPRPRPRPEDYPRP | -0.0734
RRIRQRPPRLPRPRPRPEFRPRP | 0.0728

Sequence | shrunken log2 fold change
RRIRQRPPRLPRPRPRPEGGPRP | 0.161
RRIRQRPPRLPRPRPRPEIGPRP | 0.0792
RRIRQRPPRLPRPRPRPEILPRP | 0.00769
RRIRQRPPRLPRPRPRPEKHPRP | -0.214
RRIRQRPPRLPRPRPRPEKTPRP | -0.0176
RRIRQRPPRLPRPRPRPELIPRP | -0.017
RRIRQRPPRLPRPRPRPEMGPRP | 0.223
RRIRQRPPRLPRPRPRPEMHPRP | 0.393
RRIRQRPPRLPRPRPRPENCPRP | -0.219
RRIRQRPPRLPRPRPRPEPYPRP | 0.0808
RRIRQRPPRLPRPRPRPEREPRP | 0.0841
RRIRQRPPRLPRPRPRPETNPRP | 0.0137
RRIRQRPPRLPRPRPRPETVPRP | -0.0886
RRIRQRPPRLPRPRPRPEVRPRP | 0.0665
RRIRQRPPRLPRPRPRPEWAPRP | 0.0739
RRIRQRPPRLPRPRPRPEWGPRP | 0.125
RRIRQRPPRLPRPRPRPEWRPRP | -0.00139
RRIRQRPPRLPRPRPRPFCSPRP | 0.036
RRIRQRPPRLPRPRPRPFDEPRP | -0.153
RRIRQRPPRLPRPRPRPFDFPRP | -0.404
RRIRQRPPRLPRPRPRPFDMPRP | -0.123
RRIRQRPPRLPRPRPRPFEKPRP | -0.0519
RRIRQRPPRLPRPRPRPFFTPRP | -0.343
RRIRQRPPRLPRPRPRPFGVPRP | 0.0831
RRIRQRPPRLPRPRPRPFGWPRP | -0.0154

Sequence | shrunken log2 fold change
RRIRQRPPRLPRPRPRPFHCPRP | -0.192
RRIRQRPPRLPRPRPRPFIAPRP | -0.277
RRIRQRPPRLPRPRPRPFIMPRP | -1.46
RRIRQRPPRLPRPRPRPFINPRP | -0.241
RRIRQRPPRLPRPRPRPFLVPRP | 0.000414
RRIRQRPPRLPRPRPRPFNIPRP | 0.0348
RRIRQRPPRLPRPRPRPFPDPRP | -0.108
RRIRQRPPRLPRPRPRPFPQPRP | -0.0621
RRIRQRPPRLPRPRPRPFPVPRP | 0.0568
RRIRQRPPRLPRPRPRPFPWPRP | -0.0901
RRIRQRPPRLPRPRPRPFQMPRP | -0.214
RRIRQRPPRLPRPRPRPFQPPRP | 0.0592
RRIRQRPPRLPRPRPRPFQTPRP | -0.01
RRIRQRPPRLPRPRPRPFRAPRP | 0.0134
RRIRQRPPRLPRPRPRPFRFPRP | 0.0421
RRIRQRPPRLPRPRPRPFRKPRP | -0.101
RRIRQRPPRLPRPRPRPFRRPRP | 0.0238
RRIRQRPPRLPRPRPRPFTHPRP | -0.0618
RRIRQRPPRLPRPRPRPFTLPRP | -0.0549
RRIRQRPPRLPRPRPRPFVNPRP | -0.545
RRIRQRPPRLPRPRPRPFVSPRP | -0.216
RRIRQRPPRLPRPRPRPFWLPRP | 0.0473
RRIRQRPPRLPRPRPRPFWYPRP | -0.171
RRIRQRPPRLPRPRPRPFYDPRP | -0.208
RRIRQRPPRLPRPRPRPGFNPRP | -0.119

Sequence | shrunken log2 fold change
RRIRQRPPRLPRPRPRPGGFPRP | 0.0441
RRIRQRPPRLPRPRPRPGGVPRP | 0.463
RRIRQRPPRLPRPRPRPGHFPRP | -0.0162
RRIRQRPPRLPRPRPRPGIQPRP | -0.056
RRIRQRPPRLPRPRPRPGKQPRP | -0.117
RRIRQRPPRLPRPRPRPGLNPRP | -0.129
RRIRQRPPRLPRPRPRPGLSPRP | 0.0405
RRIRQRPPRLPRPRPRPGLTPRP | -0.483
RRIRQRPPRLPRPRPRPGMFPRP | 0.00926
RRIRQRPPRLPRPRPRPGMMPRP | -0.0714
RRIRQRPPRLPRPRPRPGNHPRP | -0.0216
RRIRQRPPRLPRPRPRPGNLPRP | 0.0588
RRIRQRPPRLPRPRPRPGRQPRP | 0.021
RRIRQRPPRLPRPRPRPGRWPRP | 0.446
RRIRQRPPRLPRPRPRPGSPPRP | -0.232
RRIRQRPPRLPRPRPRPGTTPRP | 0.155
RRIRQRPPRLPRPRPRPGTWPRP | 0.0676
RRIRQRPPRLPRPRPRPGVAPRP | 0.207
RRIRQRPPRLPRPRPRPGVFPRP | 0.0582
RRIRQRPPRLPRPRPRPGWRPRP | 2.71
RRIRQRPPRLPRPRPRPGYVPRP | -0.116
RRIRQRPPRLPRPRPRPGYWPRP | -0.116
RRIRQRPPRLPRPRPRPHACPRP | -0.0973
RRIRQRPPRLPRPRPRPHCKPRP | -0.187
RRIRQRPPRLPRPRPRPHCQPRP | -0.39

Sequence | shrunken log2 fold change
RRIRQRPPRLPRPRPRPHFPPRP | -0.216
RRIRQRPPRLPRPRPRPHFQPRP | -0.108
RRIRQRPPRLPRPRPRPHGNPRP | 0.0941
RRIRQRPPRLPRPRPRPHGSPRP | -0.00277
RRIRQRPPRLPRPRPRPHGWPRP | -0.0188
RRIRQRPPRLPRPRPRPHHHPRP | -0.403
RRIRQRPPRLPRPRPRPHHQPRP | 0.18
RRIRQRPPRLPRPRPRPHKIPRP | 0.00423
RRIRQRPPRLPRPRPRPHKKPRP | -0.215
RRIRQRPPRLPRPRPRPHLNPRP | -0.29
RRIRQRPPRLPRPRPRPHNNPRP | -0.748
RRIRQRPPRLPRPRPRPHQTPRP | -0.0333
RRIRQRPPRLPRPRPRPHRFPRP | -0.275
RRIRQRPPRLPRPRPRPHSVPRP | -0.0178
RRIRQRPPRLPRPRPRPHTKPRP | -0.213
RRIRQRPPRLPRPRPRPHVTPRP | 0.0406
RRIRQRPPRLPRPRPRPICKPRP | -0.00411
RRIRQRPPRLPRPRPRPIDAPRP | 0.000655
RRIRQRPPRLPRPRPRPIDGPRP | 0.0784
RRIRQRPPRLPRPRPRPIDPPRP | 0.0328
RRIRQRPPRLPRPRPRPIEIPRP | -0.0062
RRIRQRPPRLPRPRPRPIEKPRP | 0.0125
RRIRQRPPRLPRPRPRPIFMPRP | -0.00126
RRIRQRPPRLPRPRPRPIGHPRP | -0.281
RRIRQRPPRLPRPRPRPIGPPRP | 0.229
